These results are taken from patent publication US20240124586A1 (WUXI BIOLOGICS IRELAND, published 2024).

Where a chain is given by its changes, count along the chain named. Names may count otherwise. Like-named read-outs stand apart in the source and are kept apart here.

The target in assay [1] is T1, human PD-1 on engineered CHO-S cells (W305-CHO-S.hPro1.C6) (human, UniProt Q15116 25-288).
T1 construct: whole, on cells; also called human PD-1 engineered cells; PD-1+ cells
Put plainly: FACS competition: blocks human PD-L1 protein (W315-hPro1.ECD.mFc) binding to human PD-1 engineered cells. How it is done: In order to test whether the bispecific antibodies could block hPD-L1 binding to hPD-1 protein, a competitive FACS was conducted. […] Plates were incubated at 4° C. for 1 hour. After wash, the binding of W315-hPro1.ECD.mFc to cell expressive human PD-1 was detected by FITC-labeled goat anti-mouse antibody (abcam 98716 1:125). The competition binding of antibodies to the cells was tested by flow cytometry and the mean fluorescence intensity (MFI) was analyzed by FlowJo.

Assay [2] deals with T2, cynomolgus PD-1 on engineered 293F cells (W305-293F.cynoPro1.FL.pool) (cynomolgus).
T2 construct: whole, on cells; also called cynomolgus PD-1 engineered cells
In words: FACS binding to cynomolgus PD-1 engineered cells. The method, then: 4.0-fold titrated Abs with 1% BSA DPBS from 40 μg/ml to 0.0001526 μg/ml were added to the cells. Plates were incubated at 4° C. for 1 hour. After wash, […] 1:150 diluted PE-labeled goat anti-human antibody (Jackson 109-115-098) was added to each well and the plates were incubated at 4° C. for 1 hour. The binding of the antibodies onto the cells was tested by flow cytometry and the mean fluorescence intensity (MFI) was analyzed by FlowJo.
For orientation: Flow cytometry measures light scatter and fluorescence of single cells or particles in a stream.

Assay [3] addresses T1, human PD-1 on engineered CHO-S cells …. In words: FACS on human PD-1 engineered cells. The method, then: (§1) Engineered human PD-1 expressing cells W305-CHO-S.hPro1.C6 were seeded at 1×10⁵ cells/well in U-bottom 96-well plates (COSTAR 3799). Antibodies with 3.16-fold titration in 1% BSA DPBS from 200 nM to 0.002 nM were added to the cells. The plates were incubated at 4° C. for 1 hour. After wash, […] 1:125 diluted PE-labeled goat anti-human antibody (Jackson 109-115-098) was added to each well and the plates were incubated at 4° C. for 1 hour. The binding of the antibodies onto the cells was tested by flow cytometry and the mean fluorescence intensity (MFI) was analyzed by FlowJo.

Assay [4] deals with T3, human CTLA-4 on engineered 293F cells (W316-293F.hPro1.FL) (human, UniProt P16410 36-223).
T3 construct: whole, on cells; also called human CTLA-4 engineered cells; CTLA-4+ cells
T3 sequence (P16410 36-223, change not shown): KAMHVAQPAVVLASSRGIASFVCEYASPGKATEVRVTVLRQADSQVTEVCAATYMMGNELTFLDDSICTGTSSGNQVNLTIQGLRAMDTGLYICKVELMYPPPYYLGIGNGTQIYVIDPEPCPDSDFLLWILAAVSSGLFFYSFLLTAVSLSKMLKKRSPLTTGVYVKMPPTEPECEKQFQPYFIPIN
Put plainly: FACS on human CTLA-4 engineered cells. How it is done: 3.16-fold titrated Abs with 1% BSA DPBS from 200 nM to 0.002 nM were added to the cells. Plates were incubated at 4° C. for 1 hour. After wash, […] 1:150 diluted PE-labeled goat anti-human antibody (Jackson 109-115-098) was added to each well and the plates were incubated at 4° C. for 1 hour. The binding of the antibodies onto the cells was tested by flow cytometry and the mean fluorescence intensity (MFI) was analyzed by FlowJo.

Assay [5] concerns the target T1, human PD-1 on engineered CHO-S cells …. Put plainly: FACS on human PD-1 engineered cells. The method, then: as §1
The source holds these as a separate data set.

The target of assay [6] is T4, human CD19 on CD19+ B cell lines (Ramos, Raji) (human, UniProt P15391 20-556).
T4 sequence (looked up): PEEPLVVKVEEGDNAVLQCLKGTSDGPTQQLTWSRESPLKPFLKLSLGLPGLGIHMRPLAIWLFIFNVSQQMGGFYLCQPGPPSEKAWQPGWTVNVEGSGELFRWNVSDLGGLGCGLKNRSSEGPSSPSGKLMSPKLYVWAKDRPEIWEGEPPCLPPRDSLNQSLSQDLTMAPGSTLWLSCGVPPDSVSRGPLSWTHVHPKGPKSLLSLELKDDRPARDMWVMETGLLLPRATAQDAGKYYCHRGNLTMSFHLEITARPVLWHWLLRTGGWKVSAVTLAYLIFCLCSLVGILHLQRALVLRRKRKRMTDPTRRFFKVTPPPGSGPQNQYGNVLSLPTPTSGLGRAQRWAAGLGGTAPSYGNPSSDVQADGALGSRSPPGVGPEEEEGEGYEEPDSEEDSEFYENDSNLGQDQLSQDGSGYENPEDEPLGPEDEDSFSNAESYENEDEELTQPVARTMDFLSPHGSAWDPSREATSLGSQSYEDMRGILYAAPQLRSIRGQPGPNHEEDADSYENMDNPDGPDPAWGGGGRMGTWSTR
In words: cell-based or functional assay.

Assay [7] has as its target T5, human CD3 on CD3+ Jurkat cells (human, UniProt P07766 23-207; P09693 23-182; P04234 22-171).
T5 construct: whole, on cells; also called CD3 positive Jurkat cells
Put plainly: FACS on CD3+ Jurkat cells, Expi293 supernatant.

What is called IC50 is the concentration that inhibits the measured activity by half. The low end stands for higher potency, the high end for lower potency. One may read the EC50 as the concentration that produces a half-maximal response. A higher EC50 goes with lower potency in that assay. As a reminder, the EC50 (read off the curve) is the concentration at which the effect is half-maximal.

T1 sequence (Q15116 25-288, change not shown): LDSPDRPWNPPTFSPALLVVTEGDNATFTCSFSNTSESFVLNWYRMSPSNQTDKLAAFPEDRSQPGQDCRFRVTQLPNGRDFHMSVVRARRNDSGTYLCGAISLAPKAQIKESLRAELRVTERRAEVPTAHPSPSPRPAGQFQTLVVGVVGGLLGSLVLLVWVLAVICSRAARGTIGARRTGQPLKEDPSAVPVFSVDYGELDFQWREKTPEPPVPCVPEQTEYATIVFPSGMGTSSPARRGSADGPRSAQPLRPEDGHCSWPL
T5 sequence (P07766 23-207, chain 1 of 3): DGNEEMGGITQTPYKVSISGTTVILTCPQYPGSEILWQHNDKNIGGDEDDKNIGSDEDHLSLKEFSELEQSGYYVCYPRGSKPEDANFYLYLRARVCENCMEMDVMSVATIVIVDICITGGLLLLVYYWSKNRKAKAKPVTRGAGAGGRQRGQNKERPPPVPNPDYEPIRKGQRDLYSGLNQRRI
T5 sequence (P09693 23-182, chain 2 of 3): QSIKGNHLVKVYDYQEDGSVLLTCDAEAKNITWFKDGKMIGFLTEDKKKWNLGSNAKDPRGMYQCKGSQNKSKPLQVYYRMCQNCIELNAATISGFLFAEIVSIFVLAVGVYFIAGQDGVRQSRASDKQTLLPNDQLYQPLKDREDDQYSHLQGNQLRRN
T5 sequence (P04234 22-171, chain 3 of 3): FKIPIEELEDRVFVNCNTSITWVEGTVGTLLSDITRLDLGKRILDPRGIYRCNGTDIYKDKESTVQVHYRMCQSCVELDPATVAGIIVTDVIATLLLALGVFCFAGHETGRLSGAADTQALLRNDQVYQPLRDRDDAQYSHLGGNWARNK

B1: WBP3055_1.153.7.hAb (antibody, V domains shown)
VH: EVQLLESGGGLVQPGGSLRLSCAASGFTFSSHAMSWVRQAPGKGLEWVSTITGGGGSIYYADSVKGRFTISRDNSKNTLYLQMNSLRAEDTAVYYCAKNRAGEGYFDYWGQGTLVTVSS
VL: SYELTQPLSVSVALGQTARITCGGDNIGNKDVHWYQQKPGQAPVLVIYRDSNRPSGIPEGFSGSNSGNTATLTISRAQAGDEADYYCQVWDSIWVFGGGTKLTVL
notes: anti-PD-1 antibody, parent of the U6 arm; also called W3055_1.153.7 (named U6); WBP3055-1.153.7.uIgG4k
B1: in assay [1], the IC50 came out at 0.888 nM and the Inhibition % was found to be 98.6%. Besides, in assay [2], a half-maximal response (EC50) required 3.48 nM and the “Top(MFI)” value stood at 56700 MFI.

B2: U6T1.G19.IgG4, bispecific anti-PD-1 x CTLA-4 (bispecific antibody)
heavy: not shown
light 1: SYELTQPLSVSVALGQTARITCGGDNIGNKDVHWYQQKPGQAPVLVIYRDSNRPSGIPEGFSGSNSGNTATLTISRAQAGDEADYYCQVWDSIWVFGGGTKLTVLGQPKAAPSVTLFPPSSEELQANKATLVCLISDFYPGAVTVAWKADSSPVKAGVETTTPSKQSNNKYAASSYLSLTPEQWKSHKSYSCQVTHEGSTVEKTVAPTECS
light 2: not shown
notes: Symmetric tetravalent format G19; also called U6T1 in G19 format
In turn, B2 displayed an EC50 in assay [3] of 2.19 nM.

B3: U6T5.G19.IgG4, bispecific anti-PD-1 x CTLA-4 (bispecific antibody)
heavy: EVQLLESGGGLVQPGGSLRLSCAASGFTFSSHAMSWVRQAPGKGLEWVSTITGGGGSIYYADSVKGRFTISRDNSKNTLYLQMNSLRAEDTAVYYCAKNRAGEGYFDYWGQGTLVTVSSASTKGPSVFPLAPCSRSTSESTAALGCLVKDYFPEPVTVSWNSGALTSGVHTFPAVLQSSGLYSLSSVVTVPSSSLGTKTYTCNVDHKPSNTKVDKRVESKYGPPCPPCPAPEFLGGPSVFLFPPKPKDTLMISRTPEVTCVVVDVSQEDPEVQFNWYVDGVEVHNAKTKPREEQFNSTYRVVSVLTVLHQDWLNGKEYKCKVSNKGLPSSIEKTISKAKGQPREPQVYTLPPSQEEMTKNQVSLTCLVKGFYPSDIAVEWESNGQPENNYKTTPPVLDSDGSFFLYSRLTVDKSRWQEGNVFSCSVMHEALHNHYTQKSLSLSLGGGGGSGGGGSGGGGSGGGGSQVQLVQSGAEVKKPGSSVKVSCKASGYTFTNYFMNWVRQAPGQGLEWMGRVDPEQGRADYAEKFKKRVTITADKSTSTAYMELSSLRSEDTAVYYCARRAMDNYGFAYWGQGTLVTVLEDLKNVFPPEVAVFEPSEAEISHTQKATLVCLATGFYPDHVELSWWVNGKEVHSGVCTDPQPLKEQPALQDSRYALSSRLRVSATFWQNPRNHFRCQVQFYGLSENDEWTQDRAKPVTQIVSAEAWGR
light 1: B2 light 1
light 2: EIVLTQSPDFQSVTPKEKVTITCSANSALSYMYWYQQKPDQSPKLWVHGTSNLASGVPSRFSGSGSGTDFTLTINSLEAEDAATYYCHHWSNTQWTFGGGTKVEIKPDIQNPDPAVYQLRDSKSSDKSVCLFTDFDSQTQVSQSKDSDVYITDKCVLDMRSMDFKSNSAVAWSQKSDFACANAFQNSIIPEDTFFPSPESS
notes: T5 = anti-CTLA-4 antibody W3162_1.154.8-z35; also called U6T5 in G19 format
Turning to B3, the EC50 in assay [4] worked out at 8.93 nM; in assay [5], 0.97 nM.

B4: T1U6.G19.IgG4, bispecific anti-CTLA-4 x PD-1 (bispecific antibody)
heavy: not shown
light 1: not shown
light 2: SYELTQPLSVSVALGQTARITCGGDNIGNKDVHWYQQKPGQAPVLVIYRDSNRPSGIPEGFSGSNSGNTATLTISRAQAGDEADYYCQVWDSIWVFGGGTKLTVLPDIQNPDPAVYQLRDSKSSDKSVCLFTDFDSQTQVSQSKDSDVYITDKCVLDMRSMDFKSNSAVAWSQKSDFACANAFQNSIIPEDTFFPSPESS
notes: Symmetric tetravalent format G19; T1 (ipilimumab) on top, U6 (W3055_1.153.7) as TCR-chimeric Fab at the C-terminus
Molecule B4 registered an EC50 in assay [3] of 7.93 nM.

B5: U6T5.G19R.IgG4, bispecific anti-PD-1 x CTLA-4 (bispecific antibody)
heavy: EVQLLESGGGLVQPGGSLRLSCAASGFTFSSHAMSWVRQAPGKGLEWVSTITGGGGSIYYADSVKGRFTISRDNSKNTLYLQMNSLRAEDTAVYYCAKNRAGEGYFDYWGQGTLVTVLEDLKNVFPPEVAVFEPSEAEISHTQKATLVCLATGFYPDHVELSWWVNGKEVHSGVCTDPQPLKEQPALQDSRYALSSRLRVSATFWQNPRNHFRCQVQFYGLSENDEWTQDRAKPVTQIVSAEAWGRYGPPCPPCPAPEFLGGPSVFLFPPKPKDTLMISRTPEVTCVVVDVSQEDPEVQFNWYVDGVEVHNAKTKPREEQFNSTYRVVSVLTVLHQDWLNGKEYKCKVSNKGLPSSIEKTISKAKGQPREPQVYTLPPSQEEMTKNQVSLTCLVKGFYPSDIAVEWESNGQPENNYKTTPPVLDSDGSFFLYSRLTVDKSRWQEGNVFSCSVMHEALHNHYTQKSLSLSLGGGGGSGGGGSGGGGSGGGGSQVQLVQSGAEVKKPGSSVKVSCKASGYTFTNYFMNWVRQAPGQGLEWMGRVDPEQGRADYAEKFKKRVTITADKSTSTAYMELSSLRSEDTAVYYCARRAMDNYGFAYWGQGTLVTVSSASTKGPSVFPLAPCSRSTSESTAALGCLVKDYFPEPVTVSWNSGALTSGVHTFPAVLQSSGLYSLSSVVTVPSSSLGTKTYTCNVDHKPSNTKVDKRV
light 1: B4 light 2
light 2: EIVLTQSPDFQSVTPKEKVTITCSANSALSYMYWYQQKPDQSPKLWVHGTSNLASGVPSRFSGSGSGTDFTLTINSLEAEDAATYYCHHWSNTQWTFGGGTKVEIKRTVAAPSVFIFPPSDEQLKSGTASVVCLLNNFYPREAKVQWKVDNALQSGNSQESVTEQDSKDSTYSLSSTLTLSKADYEKHKVYACEVTHQGLSSPVTKSFNRGEC
notes: also called U6T5 in G19R format
Consider B5, for which the concentration for a half-maximal effect (EC50) in assay [4] came to 8.23 nM; in assay [5], 1.26 nM.

B6: E17-Design_2-QQQQ (IgG1), bispecific anti-CD3 x CD19 (bispecific antibody)
heavy 1: not shown
light 1: DIVMTQSPDSLAVSLGERATINCKSSQSLLNSRTRKNYLAWYQQKPGQPPKLLIYWASTRQSGVPDRFSGSGSGTDFTLTISSLQAEDVAVYYCTQSHTLRTFGGGTKVEIKPDIQNPDPAVYQLRDSKSSDKSVCLFTDFDSQTQVSQSKDSDVYITDKCVLDMRSMDFKSNSAVAWSQKSDFACANAFQNSIIPEDTFFPSPESS
heavy 2: QMQLVQSGPEVKKPGTSVKVSCKASGYAFTSYNMYWVRQARGQRLEWIGYIDPYNGDTTYNQKFKGRVTITRDMSTSTAYMELSSLRSEDTAVYYCLTTAYAMDYWGQGTLVTVSSASTKGPSVFPLAPSSKSTSGGTAALGCLVKDYFPEPVTVSWNSGALTSGVHTFPAVLQSSGLYSLSSVVTVPSSSLGTQTYICNVNHKPSNTKVDKRVEPKSCDKTHTCPPCPAPEAAGGPSVFLFPPKPKDTLMISRTPEVTCVVVDVSHEDPEVKFNWYVDGVEVHNAKTKPREEQYNSTYRVVSVLTVLHQDWLNGKEYKCKVSNKALPAPIEKTISKAKGQPREPQVCTLPPSREEMTKNQVSLSCAVKGFYPSDIAVEWESNGQPENNYKTTPPVLDSDGSFFLVSKLTVDKSRWQQGNVFSCSVMHEALHNHYTQKSLSLSPGK
light 2: DIQLTQSPSFLSASVGDRVTITCSASSTVNYMHWYQQKPGKAPKLLIYSTSNLASGVPSRFSGSGSGTEFTLTISSLQPEDFATYYCHQWSSYPYTFGQGTKLEIKRTVAAPSVFIFPPSDEQLKSGTASVVCLLNNFYPREAKVQWKVDNALQSGNSQESVTEQDSKDSTYSLSSTLTLSKADYEKHKVYACEVTHQGLSSPVTKSFNRGEC
Take B6: the “EC50 of T-cell directed killing of malignant B cells (PI-positive Raji cells)” value in assay [6] was found to be 0.624 nM.

B7: T3-Design_2-QQQQ (IgG1) (antibody)
heavy: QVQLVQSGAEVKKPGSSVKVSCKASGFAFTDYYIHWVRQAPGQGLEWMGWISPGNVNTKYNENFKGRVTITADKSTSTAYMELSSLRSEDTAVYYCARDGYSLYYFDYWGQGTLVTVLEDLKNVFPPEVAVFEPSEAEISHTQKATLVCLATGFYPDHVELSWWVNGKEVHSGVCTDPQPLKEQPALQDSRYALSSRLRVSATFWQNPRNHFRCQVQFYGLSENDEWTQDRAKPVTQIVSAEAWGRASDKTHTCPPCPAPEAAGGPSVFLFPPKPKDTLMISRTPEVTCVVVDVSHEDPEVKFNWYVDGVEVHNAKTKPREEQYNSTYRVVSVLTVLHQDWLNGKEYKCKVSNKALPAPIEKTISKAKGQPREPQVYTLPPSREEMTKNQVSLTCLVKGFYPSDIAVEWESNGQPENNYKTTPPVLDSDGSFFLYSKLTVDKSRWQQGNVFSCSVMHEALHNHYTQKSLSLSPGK
light: B6 light 1
notes: De-glycosylation mutant of Design_2; tested as supernatant
As for B7, the half-maximal effective concentration (EC50 (read off the curve)) in assay [7] was roughly 0.6 nM.

B8: T3-Design_2-QQQQQ (IgG1) (antibody)
heavy: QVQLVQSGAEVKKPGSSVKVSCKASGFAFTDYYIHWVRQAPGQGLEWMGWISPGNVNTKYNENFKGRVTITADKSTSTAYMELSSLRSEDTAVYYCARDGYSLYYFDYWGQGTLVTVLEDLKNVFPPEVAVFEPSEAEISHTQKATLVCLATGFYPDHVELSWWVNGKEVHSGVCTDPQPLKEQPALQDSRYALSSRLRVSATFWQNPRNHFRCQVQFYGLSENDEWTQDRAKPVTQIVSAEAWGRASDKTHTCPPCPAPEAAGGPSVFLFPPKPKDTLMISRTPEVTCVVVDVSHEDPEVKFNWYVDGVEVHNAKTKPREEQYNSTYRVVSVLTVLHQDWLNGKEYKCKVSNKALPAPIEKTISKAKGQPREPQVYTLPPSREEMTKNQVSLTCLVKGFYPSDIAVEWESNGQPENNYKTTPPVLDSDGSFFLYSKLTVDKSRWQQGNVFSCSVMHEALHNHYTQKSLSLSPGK
light: B6 light 1 with N173Q
notes: as for B7
Take B8: the “EC50 (read off the curve)” value in assay [7] was roughly 0.4 nM.

B9: T3-Design_2-QSKE (IgG1) (antibody)
heavy: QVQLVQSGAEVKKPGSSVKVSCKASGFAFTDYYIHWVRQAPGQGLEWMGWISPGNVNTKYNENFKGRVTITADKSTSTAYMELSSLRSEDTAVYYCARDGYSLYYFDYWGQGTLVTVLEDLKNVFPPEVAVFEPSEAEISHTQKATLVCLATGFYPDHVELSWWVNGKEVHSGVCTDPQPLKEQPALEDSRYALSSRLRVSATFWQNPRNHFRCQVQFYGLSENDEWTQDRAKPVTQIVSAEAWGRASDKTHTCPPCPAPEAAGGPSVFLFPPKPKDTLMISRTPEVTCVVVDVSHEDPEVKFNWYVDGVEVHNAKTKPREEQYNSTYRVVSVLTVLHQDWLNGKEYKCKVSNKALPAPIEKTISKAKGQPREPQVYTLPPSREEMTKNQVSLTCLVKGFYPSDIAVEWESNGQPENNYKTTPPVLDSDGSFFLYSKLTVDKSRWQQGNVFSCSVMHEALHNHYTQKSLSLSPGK
light: B6 light 1 with Q180S, Q191K
notes: as for B7
Turning to B9, in assay [7], the “EC50 (read off the curve)” value was roughly 0.5 nM.

B10: T3-Design_2-AAAA (IgG1) (antibody)
heavy: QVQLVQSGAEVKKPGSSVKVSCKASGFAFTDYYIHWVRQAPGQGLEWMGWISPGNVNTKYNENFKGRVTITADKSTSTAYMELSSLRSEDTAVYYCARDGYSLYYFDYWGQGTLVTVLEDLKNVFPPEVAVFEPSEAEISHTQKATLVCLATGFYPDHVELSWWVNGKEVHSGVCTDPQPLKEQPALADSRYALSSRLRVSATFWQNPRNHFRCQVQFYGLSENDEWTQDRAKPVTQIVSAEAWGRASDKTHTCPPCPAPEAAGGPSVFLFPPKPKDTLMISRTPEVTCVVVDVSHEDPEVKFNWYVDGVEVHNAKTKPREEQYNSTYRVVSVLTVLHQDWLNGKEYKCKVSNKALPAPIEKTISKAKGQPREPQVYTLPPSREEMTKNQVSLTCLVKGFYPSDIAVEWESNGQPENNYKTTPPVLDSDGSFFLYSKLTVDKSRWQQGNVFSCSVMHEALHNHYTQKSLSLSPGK
light: B6 light 1 with Q146A, Q180A, Q191A
notes: as for B7
Regarding B10, in assay [7], the half-maximal effective concentration (EC50 (read off the curve)) was roughly 0.5 nM.

B11: T3-Design_2-ASKE (IgG1) (antibody)
heavy: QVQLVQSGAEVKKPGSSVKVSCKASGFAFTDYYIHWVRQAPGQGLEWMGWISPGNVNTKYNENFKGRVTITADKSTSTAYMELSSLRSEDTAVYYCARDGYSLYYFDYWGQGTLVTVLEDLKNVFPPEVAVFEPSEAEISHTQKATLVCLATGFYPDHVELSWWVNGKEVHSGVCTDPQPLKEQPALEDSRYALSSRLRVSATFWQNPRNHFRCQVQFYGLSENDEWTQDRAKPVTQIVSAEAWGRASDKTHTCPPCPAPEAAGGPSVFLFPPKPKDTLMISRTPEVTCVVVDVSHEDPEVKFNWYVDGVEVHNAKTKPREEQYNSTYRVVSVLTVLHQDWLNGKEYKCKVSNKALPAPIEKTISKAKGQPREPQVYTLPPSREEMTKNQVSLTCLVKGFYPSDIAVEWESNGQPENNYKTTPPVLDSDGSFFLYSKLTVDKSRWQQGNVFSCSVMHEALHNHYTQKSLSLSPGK
light: B6 light 1 with Q146A, Q180S, Q191K
notes: as for B7
Turning to B11, in assay [7], the concentration for a half-maximal effect (EC50 (read off the curve)) was roughly 0.5 nM.
